Laboratory results: patent publication US8470574B2, “L-succinylaminoacylase and process for producing L-amino acid using it” (Toyo Boseki Kabushiki Kaisha, priority 2008, dated 2013)
Entries after “also recorded” stand apart in the source; their conditions may differ. Blank lines part the entries; values can stand above or below the molecule they belong to.

Assays:
[1] = Effect of metal ion on N-succinylamino acid racemase activity; format: biochemical; conditions: final concentration of 0.1 mM to 1 M
[2] = Synthesis of L-tert-leucine from N-succinyl-L-tert-leucine, TLC with ninhydrin detection (Examples 2, 3); format: biochemical; conditions: 57° C., 6 hours, CoCl2, HEPES pH 7.9
Protocol: The above-mentioned 1 M HEPES (2.0 mL), 10 mM CoCl2 solution (0.1 mL) and 150 mM N-succinyl-L-tert-leucine (1.0 mL) were mixed with water (6.4 mL) to give a reaction reagent.
(§1) The L-succinylaminoacylase (2.3 mg/mL, 0.5 mL) prepared in Example 1 was added to the reaction reagent (9.5 mL) containing the above N-succinyl-L-tert-leucine and, after the above was gently stirred, the reaction was conducted at 57° C. for 6 hours. As a control test, the same reaction was conducted by adding 50 mM K-phosphate buffer (pH 7.5) to the reagent mixture in place of the L-succinylaminoacylase solution. […]
(§2) N-Succinyl-L-valine, N-succinyl-L-phenylalanine, N-succinyl-L-tryptophan, N-succinyl-L-asparagine, N-succinyl-L-aspartic acid, N-succinyl-L-serine, N-succinyl-L-glutamic acid, N-succinyl-L-tert-leucine, N-succinyl-L-cyclohexylglycine or N-succinyl-L-4-bromophenylalanine is used as an N-succinyl-L-amino acid and a reaction reagent was prepared according to the method for the case of N-succinyl-L-tert-leucine. L-succinylaminoacylase of Example 1 was made to react using the resulting reaction reagent to synthesize an L-amino acid and the L-amino acid was directly detected by the same manner as in Example 2.

[3] = Synthesis of L-asparagine from N-succinyl-L-asparagine, TLC detection (Example 3); format: biochemical; conditions: TLC ninhydrin, as Example 2
Protocol: (§3) The reaction reagent containing the N-succinyl-L-amino acid as such was prepared by the same method as in the preparation of a reaction reagent containing N-succinyl-L-tert-leucine mentioned in (1).
as §1, §2

[4] = Synthesis of L-valine from N-succinyl-L-valine, TLC detection (Example 3); format: biochemical; conditions: TLC ninhydrin, as Example 2
Protocol: as §3, §1, §2

[5] = Synthesis of L-tryptophan from N-succinyl-L-tryptophan, TLC detection (Example 3); format: biochemical; conditions: TLC ninhydrin, as Example 2
Protocol: as §3, §1, §2

[6] = Conversion of N-succinyl-L-tert-leucine to L-tert-leucine, HPLC (Example 4); format: biochemical; conditions: 1 wt % N-succinyl-L-tert-leucine, pH 7 to 8, 1 mM CoCl2, 57° C., up to 90 hours
Protocol: An L-succinylaminoacylase solution (1 mL; 2.3 mg/mL) was added to a 1 wt % solution of N-succinyl-L-tert-leucine (pH 7 to 8; 10 mL; containing 1 mM of CoCl2) and made to react at 57° C. for 90 hours with stirring to give L-tert-leucine. The sample was collected after 16 hours, 42 hours, 65 hours and 90 hours from the start of the reaction and subjected to an HPLC measurement under the following condition to confirm the peaks of succinyl-form compound and free-form compound whereby the synthesis of L-tert-leucine from N-succinyl-L-tert-leucine was confirmed.
Column: Inertsil ODS-2 (particle size: 5 μm; 4.6 mm inner diameter×250 mm length) manufactured by GL Science
Eluant: aqueous solution of phosphate (pH 2.3)/acetonitrile for HPLC=80:20
Column temperature: 40° C.

[7] = Conversion of N-succinyl-DL-tert-leucine to L-tert-leucine with N-succinylamino acid racemase, HPLC (Example 6); format: biochemical; conditions: used together with N-succinylamino acid racemase, 1 wt % N-succinyl-DL-tert-leucine, 1 mM CoCl2, 57° C., up to 90 hours
Protocol: An L-succinylaminoacylase solution (1 mL; 2.3 mg/mL) prepared in Example 1 and the above N-succinylamino acid racemase (0.1 mL; 10.5 mg/mL) were added to a 1 wt % solution of N-succinyl-DL-tert-leucine (pH 7 to 8; 10 mL; containing 1 mM of CoCl2) and made to react at 57° C. for 90 hours with stirring to synthesize L-tert-leucine. The sample was collected after 24 hours and 90 hours from the start of the reaction and subjected to an HPLC measurement under the condition same as Example 4 to confirm the peaks of succinyl-form compound and free-form compound whereby the synthesis of L-tert-leucine from N-succinyl-DL-tert-leucine was confirmed.

[8] = Synthesis of L-phenylalanine from N-succinyl-L-phenylalanine, TLC detection (Example 3); format: biochemical; conditions: TLC ninhydrin, as Example 2
Protocol: as §3, §1, §2

[9] = Synthesis of L-serine from N-succinyl-L-serine, TLC detection (Example 3); format: biochemical; conditions: TLC ninhydrin, as Example 2
Protocol: as §3, §1, §2

[10] = Effect of metal ion on L-succinylaminoacylase activity; format: biochemical; conditions: metal ion Co2+ versus Zn2+
Optimum pH of the enzyme = format: biochemical; conditions: reaction at 60° C. for 30 minutes
[11] = Synthesis of L-4-bromophenylalanine from N-succinyl-L-4-bromophenylalanine, TLC detection (Example 3); format: biochemical; conditions: TLC ninhydrin, as Example 2
Protocol: as §3, §1, §2

[12] = Synthesis of L-glutamic acid from N-succinyl-L-glutamic acid, TLC detection (Example 3); format: biochemical; conditions: TLC ninhydrin, as Example 2
Protocol: as §3, §1, §2

[13] = Activity to N-succinylamino acid compared with N-acetylamino acid; format: biochemical
[14] = Synthesis of L-cyclohexylglycine from N-succinyl-L-cyclohexylglycine, TLC detection (Example 3); format: biochemical; conditions: TLC ninhydrin, as Example 2
Protocol: as §3, §1, §2

[15] = Synthesis of L-aspartic acid from N-succinyl-L-aspartic acid, TLC detection (Example 3); format: biochemical; conditions: TLC ninhydrin, as Example 2
Protocol: as §3, §1, §2

[16] = Temperature stability of the enzyme; format: physicochemical; conditions: heating treatment for 30 minutes
[17] = Conversion of N-succinyl-DL-tert-leucine to L-tert-leucine, HPLC (Example 5); format: biochemical; conditions: 1 wt % N-succinyl-DL-tert-leucine, pH 7 to 8, 1 mM CoCl2, 57° C., 90 hours, theoretically highest yield 50%
Protocol: An L-succinylaminoacylase solution (1 mL; 2.3 mg/mL) was added to a 1 wt % solution of N-succinyl-DL-tert-leucine (pH 7 to 8; 10 mL; containing 1 mM of CoCl2) and made to react at 57° C. for 90 hours with stirring to give L-tert-leucine. The sample was collected after finishing the reaction and subjected to an HPLC measurement under the condition same as the Example 4 to confirm the peaks of succinyl-form compound and free-form compound whereby the synthesis of L-tert-leucine from N-succinyl-DL-tert-leucine was confirmed. As a result, the yield was 45% or more and the value near 50% which is the theoretically highest yield was achieved.

[18] = Ability of commercially available L-aminoacylase to synthesize L-tert-leucine, TLC (Comparative Example); format: biochemical; conditions: 2,600 U/mL enzyme solution, 25° C., 12 hours; TLC ninhydrin
Protocol: Acylase AMANO (Sigma, code No. 01818-5G) and porcine kidney Acylase I (Sigma, code No. A3010-100MG) were dissolved in 50 mM K-phosphate buffer (pH 7.5) so as to make each of them 2,600 U/mL to give an L-aminoacylase solution.
The above-mentioned 1 M HEPES (2.0 mL), 10 mM CoCl2 solution (0.1 mL) and 150 mM N-acetyl-L-tert-leucine (1.0 mL) were mixed with water (6.4 mL) to give a reaction reagent.
The above commercially available L-aminoacylase (Comparative Example 2) (0.5 mL) was added to the reaction reagent (9.5 mL) containing the above N-acetyl-L-tert-leucine and, after the above was gently stirred, the reaction was conducted at 25° C. for 12 hours. As a control test, the same reaction was conducted by adding 50 mM K-phosphate buffer (pH 7.5) to the reagent mixture in place of the L-aminoacylase solution. After the enzymatic reaction, the L-amino acid was directly detected by TLC and ninhydrin reaction by the same manner as in Example 2.

B1: N-succinylamino acid racemase: N-succinylamino acid racemase (gene SEQ ID No: 3) derived from Geobacillus stearothermophilus NCA 1503 strain, per JP-A No. 2008-61642 (protein, listed as Geobacillus stearothermophilus)
chain: MAINIEYVILRHLQMELKAPFTTSFGTFQRKELILVEVVDRDGVSGWGESVAFSAPWYSEETVKTNWHMLEDFLVPLALAEPIHHPEELSKRFSAIRQNNMAKAALEGAVWDLYAKRLGVPLSQALGGAKKDIEVGVSIGIQPTVADLLQVIERYVAQGYRRIKVKIKPSWDVDVIREVRRVFPDVPLMADANSAYTLVDADRLKALDEFGLLMIEQPLAADDLVDHARLQPLLQTPICLDESIRSYDDARKALDLGSCRIINIKIGRVGGLGEAKRIHDLCAERGAPVWCGGMLEAGVGRAHNIAITTLENFTLPGDTAASSHYWERDIITPEVEVHGGLIRVPDAPGIGYDVDRRQVERYTQFAKVFHRTATA
modifications: CDS (1)..(1128)
relative activity with Co2+ as compared with Mn2+ [1]: twice or more higher

activity increase with Co2+ as compared with Zn2+ [10]: twice or more
B2: L-succinylaminoacylase: L-succinylaminoacylase of NCA 1503 strain of Geobacillus stearothermophilus; amino acid sequence SEQ ID No: 2, expressed in Escherichia coli JM 109 (pLSA1) (protein, listed as Geobacillus stearothermophilus)
chain: MKEIVEQMKAELWEVFDHLHRHPEISWEEWQTTEFLRRELEREGYRVRTFADCPGVVAEIGAGPFTVGVRSDMDALWQEVNGVWQPNHACGHDAHMTIVLGVAKLLRRIGYEPPGTLRFLFQPAEEKGTGALKLIEKGAVDGVSFLYGVHLRPIQEVKGGYAAPAIIHGAAQCIEGRIRGVAAHAARPHLGVNVIEVGSAIVQELGKIHIDPQVPASIKMTKFHAGEKDANTIPGYAEFALDLRAQTNEAMERLVEGLRHVINGVAAIYGAEIELVERTRIVAAHPDPDAVRLMEEAIIAALGTEKCVPPVVTSGGEDFHFYSFQKPELKTTMLGLGCDLRPGLHHPNMTFRRDDLLSGVEILARTVINTFALQGENERVSVAANH
ability to produce L-tert-leucine from N-succinyl-L-tert-leucine [2]: able to produce the L-tert-leucine; also recorded: able to synthesize the corresponding L-amino acid; also recorded: reacts | ability to synthesize L-asparagine from N-succinyl-L-asparagine [3]: able to synthesize the corresponding L-amino acid | ability to synthesize L-valine from N-succinyl-L-valine [4]: able to synthesize the corresponding L-amino acid | ability to synthesize L-tryptophan from N-succinyl-L-tryptophan [5]: able to synthesize the corresponding L-amino acid | yield (conversion rate into L-tert-leucine) [6]: ≥ 90% | yield (conversion rate into L-tert-leucine) [7]: about 85% | ability to synthesize L-phenylalanine from N-succinyl-L-phenylalanine [8]: able to synthesize the corresponding L-amino acid | ability to synthesize L-serine from N-succinyl-L-serine [9]: able to synthesize the corresponding L-amino acid | Optimum pH (Optimum pH of the enzyme): 7 | ability to synthesize L-4-bromophenylalanine from N-succinyl-L-4-bromophenylalanine [11]: able to synthesize the corresponding L-amino acid; also recorded: reacts | ability to synthesize L-glutamic acid from N-succinyl-L-glutamic acid [12]: able to synthesize the corresponding L-amino acid | activity to N-succinylamino acid relative to N-acetylamino acid [13]: at least 100 fold | ability to synthesize L-cyclohexylglycine from N-succinyl-L-cyclohexylglycine [14]: able to synthesize the corresponding L-amino acid; also recorded: reacts | ability to synthesize L-aspartic acid from N-succinyl-L-aspartic acid [15]: able to synthesize the corresponding L-amino acid | Temperature stability: temperature at which inactivated [16]: ≥ 75 °C | Temperature stability: temperature at which stable [16]: 70 °C | yield of L-tert-leucine [17]: ≥ 45%

ability to synthesize L-tert-leucine from N-acetyl-L-tert-leucine [18]: unable to synthesize L-tert-leucine
B3: porcine kidney Acylase I: commercially available L-aminoacylase (Sigma, code No. A3010-100MG) (protein, UniProt P37111 2-407, looked up)
Aminoacylase-1: ASKGREGEHPSVTLFRQYLRIRTVQPEPDYGAAVAFLEERARQLGLGCQKVEVVPGHVVTVLTWPGTNPTLSSILLNSHTDVVPVFKEHWSHDPFEGFKDADGYIYGRGAQDMKCVSIQYLEAVRRLKVEGHHFPRTIHMTFVPDEEVGGHQGMELFVKRPEFQALRAGFALDEGLASPTDAFTVFYSERSPWWLRVTSTGKPGHGSRFIEDTAAEKLHKVINSILAFREKEKQRLQSNQLKPGAVTSVNLTMLEGGVAYNVVPATMSACFDFRVAPDVDLKAFEEQLQSWCQAAGEGVTFEFVQKWMETQVTSTDDSDPWWAAFSGVFKDMKLALELEICPASTDARYIRAAGVPALGFSPMNHTPVLLHDHDERLHEAVFLRGVDIYTQLLSALASVPALPSES
